Measured values reported in PMC9192718.

What was measured:
[1] = biological target: Heimdallarchaeota AB125 Vps22 (HeimAB125_14050) (Heimdallarchaeota AB125); experiment: cross-linking; Vps22 15 µM in 20 mM HEPES-NaOH pH 7.5, 150 mM NaCl; 16 mM EDC with 16 mM Sulfo-NHS (1 h) or 2 mM BS3 (2 h) on ice; SDS-PAGE
[2] = biological target: Heimdallarchaeota AB125 Vps22 (HeimAB125_14050) (Heimdallarchaeota AB125); experiment: SEC-MALS; Heimdallarchaeotal Vps22 alone, loaded at 2.0 and 0.5 mg/ml; Superdex 200 increase 10/300; 20 mM Tris-HCl pH 8.0, 200 mM NaCl, 0.5 ml/min
[3] = biological target: Odinarchaeota (Ca. Odinarchaeum yellowstonii LCB_4) Vps23 (TSG101) (Ca. Odinarchaeum yellowstonii LCB_4); experiment: SEC-MALS; Odinarchaeota proteins; 100 µl at 2 mg/ml; Superdex 200 10/300 Increase GL; 20 mM Tris pH 8.0, 300 mM NaCl, 0.4 ml/min

Heimdallarchaeota AB125 Vps22 (HeimAB125_14050) (natural protein)
stoichiometry N [1]: 2
stoichiometry N [2]: 2

Odinarchaeota (Ca. Odinarchaeum yellowstonii LCB_4) Vps23 (TSG101) (natural protein)
stoichiometry N [3]: 2

Odinarchaeota (Ca. Odinarchaeum yellowstonii LCB_4) Vps28 (natural protein)
stoichiometry N (Vps28 per Vps23 dimer) [3]: 1
